Measured values: patent publication US8546353B2, “Compounds and combinations” (priority 2010, dated 2013)
“Also recorded” adds a separate entry of the source.

Tests used:
[1] = system: circulating hematopoietic progenitor cells (HPCs) in peripheral blood; assay: Peripheral blood stem cell mobilization, colony forming unit (CFU) assay on peripheral blood mononuclear cells; type: in vivo, C57BL/6J mice
Description: (§1) Adult (8-10 weeks) female, age-matched C57BL/6J (Jackson stock nr 000664, the Charles River Laboratories) CD45.2 mice were used in the in vivo mobilization experiments. The acclimatization period was always at least 7 days before the experiments. The animals were individually identified by ear and tail numbering and were housed in a Scantainer (Scanbur A/S, Karlslunde, Denmark) in Makrolon III cages. The animal room temperature was 21±2° C. and humidity was between 40-60%. Lightning was artificial, 12 h light and 12 h dark. The mice were provided with irradiated fodder and normal tap water ad libitum. Average weight of all animals in the experiments was 18.8±1.5 g. No formal randomization or grouping was done. Animals were randomly allocated to the study groups. All animals were weighed before the first dosing and in the end of each study.
(§2) Sterile filtered PBS (pH 7.2) served as vehicle in all studies and was injected intravenously in the tail vein in similar volumes (50 or 100 μl) and time-points as the other test items within each study. Recombinant pegylated granulocyte-colony stimulatory factor (G-CSF), pegfilgrastim (Neulasta™, Amgen), with the stock concentration 10 mg/ml, was diluted immediately before the injections in sterile filtered PBS (pH 7.2) to yield a 0.25-0.5 mg/ml dosing solution. The animals obtained 25 μg pegfilgrastim (Neulasta™) subcutaneously at a dose volume of 50 or 100 μl on study day 0. The LMW hyaluronic acid derivatives HA and 6-O-S HA were prepared for injections into sterile filtered PBS in 5-10 mg/ml solutions and injected intravenously in the tail vein in dose volumes of 50 or 100 μl yielding 500 μg doses/mouse.
The LMW hyaluronic acid (HA) derivatives were tested for capability to mobilize hematopoietic stem and progenitor cells to peripheral blood after 500 μg i.v. injections at the following time-points: 4h, 1d, 2d, 3d and 5d post-injections. Repetitive dosing was tested with daily 500 μg i.v. injections and sampling was done either on experimental days 2 (after 3 doses) or 5 (after 6 doses) after the first injection on day 0. Abnormal clinical signs or mortality was not observed with the LMW HA derivatives with 500 μg doses. […]
Mononuclear cells were isolated by carefully overlaying 3 ml Ficoll-Paque® (GE Healthcare) with peripheral blood diluted 1:2 in phosphate buffered saline (PBS)-2 mM EDTA. […] Mononuclear cell yields were counted using a Bürker chamber.
(§3) Myeloid hematopoietic progenitor cells were further enumerated by the colony forming unit (CFU/CFC) assay. Progenitor cells that are restricted in their lineage potential and that have limited self-renewal capability can be detected in colony-forming cell (CFC) assays using semisolid media such as methylcellulose, agar or collagen. […]

[2] = system: hematopoietic progenitor cells (HPCs) in the bone marrow; assay: CFU assay on bone marrow mononuclear cells; type: in vivo, C57BL/6J mice; details: single 25 μg s.c. at day 0, samples at day 5, 1×10^5 mononuclear cells
Description: as §1, with “All animals were weighed before the first dosing and in the end of each study.” left out
as §3, with “collagen. Progenitors that read out in culture assays can either be multipotent, e.g. capable of generating progeny of multiple blood cell types, or restricted to one or two lineages, e.g. erythrocytes, granulocytes, monocyte/macrophages or platelets.” for “collagen.”

[3] = system: white blood cell (WBC) contents in peripheral blood; assay: Leukocyte content in blood, automated blood cell counter Sysmex XT-2000i; type: in vivo, C57BL/6J mice; details: single dose (HA derivatives 500 μg i.v.; pegfilgrastim 25 μg s.c.); 5 days (FIG. 2C)
Description: as §1
(§4) Sterile filtered PBS (pH 7.2) served as vehicle in all studies and was injected intravenously in the tail vein in similar volumes (50 or 100 μl) and time-points as the other test items within each study. […]
(§5) The leukocyte, erythrocyte and platelet contents were determined for all blood samples by automated blood cell counter Sysmex XT-2000i by diluting the mouse blood 1:4 with 0.9% NaCl.
(§6) Complete blood counts (numbers of white blood cells, mature red blood cells and platelets) of mouse peripheral blood were determined with automated blood cell counter.

[4] = system: red blood cell (RBC) contents in peripheral blood; assay: Erythrocyte content in blood, automated blood cell counter Sysmex XT-2000i; type: in vivo, C57BL/6J mice; details: 25 μg s.c.
Description: as §1, §4, §5, §6

spleen = assay: Spleen weights after mobilization studies; type: in vivo; details: 25 μg s.c.
Description: as §1
Sterile filtered PBS (pH 7.2) served as vehicle in all studies and was injected intravenously in the tail vein in similar volumes (50 or 100 μl) and time-points as the other test items within each study. Recombinant pegylated granulocyte-colony stimulatory factor (G-CSF), pegfilgrastim (Neulasta™, Amgen), with the stock concentration 10 mg/ml, was diluted immediately before the injections in sterile filtered PBS (pH 7.2) to yield a 0.25-0.5 mg/ml dosing solution. […]

[5] = system: hematopoietic cell populations of mouse peripheral blood; assay: Immunophenotypic profiling of peripheral blood by flow cytometry; type: in vivo, C57BL/6J mice; details: pegfilgrastim 25 μg s.c. −5 days
Description: as §1, §2
The LMW hyaluronic acid (HA) derivatives were tested for capability to mobilize hematopoietic stem and progenitor cells to peripheral blood after 500 μg i.v. injections at the following time-points: 4h, 1d, 2d, 3d and 5d post-injections. Repetitive dosing was tested with daily 500 μg i.v. injections and sampling was done either on experimental days 2 (after 3 doses) or 5 (after 6 doses) after the first injection on day 0. Abnormal clinical signs or mortality was not observed with the LMW HA derivatives with 500 μg doses. The LMW HA derivatives were also tested in combination with a single dose of pegfilgrastim (Neulasta™). In combinatorial G-CSF+LMW HA studies, pegfilgrastim was always injected s.c. at experimental day 0 and the LMW HA derivatives were administered i.v. as • a) single doses of 500 μg at experimental day 3, • b) single doses of 500 μg 1 or 4 hours before sampling, or • c) as repetitive doses of 500 μg daily from experimental day 0-5 (in total 6 doses).
Flow cytometric analysis was performed on FACSAria (Becton Dickinson Biosciences) with a 488-nm argon laser for (PE, FITC and PE-Cy7), a 633-nm hene laser for (APC and APC-Cy7). Fluorescense was measured using 530/30-nm (FITC), 585/42-nm (PE), 780/60-nm (PE-Cy7), 660/20-nm (APC) and 780/60 (APC-Cy7) bandpass filters.
Peripheral mouse blood was diluted 1:5 in 0.9% NaCl (Baxter). Fluorescence labels (ebiosciences, except APC-CD45 BD Biosciences): 0.04 μg phycoerythrin (PE)-conjugated CD11c (dendritic cells; clone N418; cat#12-0114), fluorescein isothiocyanate (FITC)-conjugated 0.3 μg TER-119 (erythroid cells; clone TER-119; cat#11-5921), 0.1 allophycocyanin (APC)-conjugated CD314 (natural killer cells; clone CX5; 17-5882), 0.08 μg APC-Cyanine 7 (Cy7)-conjugated CD3e (T cells; clone 17A2; cat#27.0032) and 0.04 μg PE-Cy7 conjugated CD45R (B cells; RA3-6B2; 25-0452) were combined in one tube and 0.08 μg PE-conjugated CD115 (for monocytes and macrophages; clone AFS98; cat#12-1152), 0.2 μg FITC-conjugated-CD41 (megakaryocytes and hematopoietic progenitors; clone MWReg30; cat#11-0411), 0.08 μg APC-conjugated CD45 (leukocytes; clone 30-F11; cat#559864) and 0.03 μg PE-Cy7-conjugated LY-6G (neutrophils; clone RB6-8C5; cat#25-5931) were combined in another tube, incubated for 30 minutes on ice protected from light. […]

[6] = system: SLAM+ cells (CD150+CD48−CD45+) in peripheral blood; assay: SLAM immunophenotyping by flow cytometry; type: in vivo, C57BL/6J mice; details: pegfilgrastim 25 μg s.c. day 0; combination + single 500 μg i.v. one hour before sampling (FIG. 14)
Description: as §1, with “No formal randomization or grouping was done. Animals were randomly allocated to the study groups. All animals were weighed before the first dosing and in the end of each study.” left out
The enrichment of long-term repopulating (LTR) hematopoietic stem cells was detected with representation of SLAM markers. […] CD45+ cells expressing CD150, but not CD48 cell surface markers were determined as a population highly enriched with LTR hematopoietic stem cells.
Although mobilization of HPCs may be of use for short-term repopulation in clinical settings, long-term repopulation and reconstitution of the hematopoietic cell system in a transplant recipient demands the presence of mobilized long-term repopulating hematopoietic stem cells (LTR-HSCs). […] The presence of SLAM (CD150+CD48−CD45+) positive cells in mouse blood was determined by flow cytometry after vehicle, pegfilgrastim or pegfilgrastim +6-O-S LMW HA dosing. […]

B1: pegfilgrastim (protein, chains of the INN, looked up)
chain: TPLGPASSLPQSFLLKCLEQVRKIQGDGAALQEKLCATYKLCHPEELVLLGHSLGIPWAPLSSCPSQALQLAGCLSQLHSGLFLYQGLLQALEGISPELGPTLDTLQLDVADFATTIWQQMEELGMAPALQPTQGAMPAFASAFQRRAGGVLVASHLQSFLEVSYRVLRHLAQP
modifications: N-terminal methionine, PEG
mean CFU colonies ([1]; Neulasta 25 μg s.c. day 0, sampling day 5, combination: 500 μg i.v. 1 hour before sampling (FIG. 10A)): 18.8 colonies/10^5 mononuclear cells | time of peak of HPC mobilization after s.c. injection ([1]; single 25 μg s.c.): 5 days | number of circulating HPCs in mouse peripheral blood, increase over background ([1]; single 25 μg s.c. at day 0, samples at day 5, CFU, 1×10^5 mononuclear cells): 40-50 fold | mobilization of circulating HPCs ([1]; single 25 μg s.c. injection (FIG. 9A)): robust mobilization of circulating HPCs | number of HPCs in the bone marrow, decrease [2]: over 2 fold | WBC counts 5 days after single dose [3]: remained high | numbers of mature RBC 2 days after s.c. injection ([4]; 2 days): elevate the numbers of mature RBC | RBC elevation 5 days after s.c. injection ([4]; 5 days, occasionally seen (FIG. 4C)): normalize back to control levels | spleen swelling 3 days after single s.c. injection (spleen; 3 days (FIG. 8A left panel)): evident | spleen swelling two days after s.c. injection (spleen; two days): evident | levels of circulating monocytes, neutrophils and eosinophils (MNEs) as a pool ([5]; combination + 500 μg i.v. 1 hour before sampling (FIG. 11A), listed as G-CSF): robust increase; also recorded: dramatically increased | granulocytes within the MNEs ([5]; combination + 500 μg i.v. 1 hour before sampling (FIG. 11B)): proliferated | levels of monocytes and macrophages as a pool ([5]; combination + 500 μg i.v. 1 hour before sampling (FIG. 11C)): decreased | levels of CD45+CD115+ progenitors ([5]; combination + 500 μg i.v. 1 hour before sampling (FIG. 12A)): increased | levels of CD45+CD41+ progenitors ([5]; combination + 500 μg i.v. 1 hour before sampling (FIG. 12B)): decreased from control levels | levels of Ter-119+ proerythroblasts ([5]; combination + 500 μg i.v. 1 hour before sampling (FIG. 12C)): decrease | levels of megakaryocytes and platelets ([5]; combination + 500 μg i.v. 1 hour before sampling (FIG. 12D)): decreased levels of megakaryocytes and platelets | levels of peripheral blood lymphocytes ([5]; combination + 500 μg i.v. 1 hour before sampling (FIG. 13A)): increased | CD3+ T-cells within the lymphocyte population ([5]; combination + 500 μg i.v. 1 hour before sampling (FIG. 13B)): increase | NK (CD314+) cell levels ([5]; combination + 500 μg i.v. 1 hour before sampling (FIG. 13C)): remained unaltered | CD45R+ B-cells within the lymphocyte population ([5]; combination + 500 μg i.v. 1 hour before sampling (FIG. 13D)): decrease | levels of circulating SLAM+ cells (CD150+CD48−CD45+) [6]: dramatically increased
